Test [1] concerns the target T1, B*35:03 (Homo sapiens, UniProt P01889, A329T/A93T/A95T/C349S/D201E/D98Y/E176V/E187L/E204Q/E69T/I218V/K202T/L119I/Q94N/R155S/R180L/S121R/S35A/S48A/T118I/V127L/V306I/V36M/Y140F/Y91F). The settings on record: IEDB value, cellular MHC/mass spectrometry; cited from earlier work.
Test [2] has as its target T2, C*02:02 (Homo sapiens, UniProt P10321, A176E/A235T/A330V/A97T/C350S/D114A/D33Y/G40S/L171W/L180W/L218V/M285V/M309V/M331V/N104K/P208H/Q277E/Q291P/R45H/S101N/S123Y/S297R/S48A/T187E/T329A/T363A/V319A). As to conditions: IEDB value, cellular MHC/mass spectrometry; cited from earlier work.
The next test has as its target A*26:01 (Homo sapiens, UniProt P04439, A114D/A173T/A270S/D101N/D185E/E277Q/E87N/F33Y/G231S/I121R/I218V/K168Q/L180W/L300P/L318F/P208A/P217A/Q86R/Q94H/R138Q/S129P/T187R/T323A/T345S/V100A/V358M). As to conditions: IEDB value, purified MHC/direct/fluorescence, read-out: dissociation constant KD (~EC50); cited from earlier work.
Test [3] addresses T2, C*02:02. The test is described as follows: ELISA of small scale MHCI refold (anti-HLA W6/32 capture, anti-B2M detection). As to conditions: for S/N ELISA value: C*02:02, 1.0 μg/mL MHCI, no peptide control as background; for normalized ELISA OD: C*02:02, 1 μg/mL MHCI, normalized to no peptide control. It is filed as binding. The procedure:
Recombinant HLA alleles and B2M were over-expressed in E. coli, purified from inclusion bodies, and stored under denaturing conditions (6M Guanidine HCL, 25 mM Tris pH 8) in −80° C. as described above. In a 200 μL reaction, the peptide (0.01 mM, per well), oxidized and reduced glutathione (0.5 mM and 4.0 mM, respectively), recombinant HLA alleles (0.03 mg/mL) and B2M (0.01 mg/mL) were all combined within a 96-well plate. Refold screens were performed with five different peptides for each HLA of interest as described above (Table 3). and the MHCI complex was incubated at 4° C. for 3-5 days to allow refolding. Refolded samples were analyzed by ELISA, and the highest performing peptide was selected for further analysis. All data was analyzed relative to the negative control refold, which was performed in the absence of peptide (labeled NP). HLA-A*02:01 refolded with the CMV pp65 viral epitope was used as a positive control. […]
(§1) A 384-well Nunc Maxisorp plate (ThermoFisher Scientific, Waltham, MA) was coated with 25 μL/well of mouse IgG2a anti-HLA ABC clone W6/32 (Novus Biological, Littleton, Co.) at 8 μg/mL in coating buffer (0.05 sodium carbonate pH 9.6). After overnight incubation at 4° C., the plate was washed 3 times with wash buffer (PBS, 0.5% Tween 20). The plate was then blocked with 50 μL/well of Block buffer (PBS, 0.5% BSA, 10 ppm Proclin) and incubated at room temperature (RT) with agitation for 1 hour. […] The plate was washed six times and 25 IL of biotinylated mouse IgG1 anti-human B2M (BioLegend, San Diego, CA) at 100 ng/mL in assay diluent was added to each well. After a 1 hour incubation at RT and six washes, 25 μL/well of Streptavidin-Horseradish Peroxidase (GE, Marlborough, MA) was added to the plate and incubated for 30 min at RT. The color reaction was developed with TMB peroxidase substrate (Moss, Pasadena, MD) at RT for 15 min, and the reaction was stopped with 1M phosphoric acid. The absorbance was measured at a wavelength of […] with a reference at 620 nm. Refolded MHC monomers without peptide or irrelevant peptide were used as the negative controls for each allele to normalize the signal.
(§2) Recombinant HLA alleles and B2M were over-expressed in E. coli, purified from inclusion bodies, and stored under denaturing conditions (6M Guanidine HCl, 25 mM Tris pH 8) in −80° C. as described above. In a 200 μL reaction, the peptide (0.01 mM, per well), oxidized and reduced glutathione (0.5 mM and 4.0 mM, respectively), recombinant HLA alleles (0.03 mg/mL) and B2M (0.01 mg/mL) were all combined in a 96-well plate. Refolds were performed with five different peptides for each HLA of interest as described above (Table 3), and the MHCI complex was incubated at 4° C. for 3-5 days to allow refolding. MHCI complex refolds were also performed in the absence of a peptide and used as the negative control to calculate the signal to noise (S/N) for the experimental peptides. Given that there should have been minimal properly refolded complex in the absence of a peptide, these samples provided the overall background of the assay to calculate the S/N value. HLA-A*02:01 refolded with the CMV pp65 viral epitope was used as a positive control. Peptides yielding the highest signal to noise ratio (S/N) were selected for further analysis.
Two different ELISA assays were evaluated to optimize the sensitivity of the assay. In the first assay format, the refolded MHCI was captured with anti-B2M antibody and detected with pan ABC anti-HLA antibody (clone W6/32). In the second assay format, MHCI was captured with the pan ABC anti-HLA antibody (clone W6/32) and detected with the anti-B2M antibody. In both assays, a 384-well Nunc Maxisorp plate (Thermo Fisher Scientific, Waltham, MA) was coated with 25 μL/well of capture antibody, mouse IgG1 anti-human B2M (BioLegend, San Diego, CA) or mouse IgG2a anti-HLA ABC clone W6/32 (Novus Biological, Littleton, Co.), at 8 μg/mL in coating buffer (0.05 sodium carbonate pH 9.6). […]

A further test concerns the target HLA-A*02:03 (Homo sapiens, UniProt P04439, A173T/D140Y/D185E/D98H/E277Q/G131W/G231S/I119V/I121R/I166T/I218V/L180W/L300P/L318F/N151K/N90K/P208A/P217A/Q86G/Q94H/R138H/R169H/T345S). Described as above. It is filed as binding. Also noted: inferred from enzymatic biotinylation; made in house; host or cells: Escherichia coli. As to conditions: for S/N ELISA value: A*02:03, 1.0 μg/mL MHCI, no peptide control as background; for normalized ELISA OD (signal to background): A*02:03, 1 μg/mL MHCI, normalized to no peptide control.

Another test deals with C*14:02 (Homo sapiens, UniProt P10321, A176E/A330V/A35S/A97T/C350S/D114A/D33S/L171W/L180R/L218V/M285V/M309V/M331V/P208H/Q277E/Q291P/R121W/R243W/S123F/S297R/S48A/T329A/T363A/V319A). The settings on record: IEDB value, purified MHC/direct/fluorescence, read-out: dissociation constant KD; cited from earlier work.
For test [4], the target named is T1, B*35:03. Kind of test: ELISA of small scale MHCI refold (anti-HLA W6/32 capture, anti-B2M detection). The settings on record: for S/N ELISA value: B*35:03, 1.0 μg/mL MHCI, no peptide control as background; for normalized ELISA OD (signal to background): B*35:03, 1 μg/mL MHCI, normalized to no peptide control. On the set-up: inferred from enzymatic biotinylation; made in house; host or cells: Escherichia coli. It is filed as binding. The procedure: Recombinant HLA alleles and B2M were over-expressed in E. coli, purified from inclusion bodies, and stored under denaturing conditions (6M Guanidine HCL, 25 mM Tris pH 8) in −80° C. as described above. In a 200 μL reaction, the peptide (0.01 mM, per well), oxidized and reduced glutathione (0.5 mM and 4.0 mM, respectively), recombinant HLA alleles (0.03 mg/mL) and B2M (0.01 mg/mL) were all combined within a 96-well plate. Refold screens were performed with five different peptides for each HLA of interest as described above (Table 3). and the MHCI complex was incubated at 4° C. for 3-5 days to allow refolding. Refolded samples were analyzed by ELISA, and the highest performing peptide was selected for further analysis. All data was analyzed relative to the negative control refold, which was performed in the absence of peptide (labeled NP). HLA-A*02:01 refolded with the CMV pp65 viral epitope was used as a positive control.
Formation of stable conditional MHCI complexes upon refolding with the redesigned peptides were identified by ELISA as described above. […] The original peptide (containing no UV amino acid substitution) was used as a positive control. All peptides used here were purchased from JPT (www.jpt.com) or ELIM Biopharm (www.elimbio.com).
as §1, §2
Two different ELISA assays were evaluated to optimize the sensitivity of the assay. In the first assay format, the refolded MHCI was captured with anti-B2M antibody and detected with pan ABC anti-HLA antibody (clone W6/32). In the second assay format, MHCI was captured with the pan ABC anti-HLA antibody (clone W6/32) and detected with the anti-B2M antibody. […]

Where no end group is shown, it is not given here. [ ]: non-standard residue; d: D form. code J = not defined here

Method for HLA-A*02:03: Recombinant HLA alleles and B2M were over-expressed in E. coli, purified from inclusion bodies, and stored under denaturing conditions (6M Guanidine HCL, 25 mM Tris pH 8) in −80° C. as described above. In a 200 μL reaction, the peptide (0.01 mM, per well), oxidized and reduced glutathione (0.5 mM and 4.0 mM, respectively), recombinant HLA alleles (0.03 mg/mL) and B2M (0.01 mg/mL) were all combined within a 96-well plate. Refold screens were performed with five different peptides for each HLA of interest as described above (Table 3). and the MHCI complex was incubated at 4° C. for 3-5 days to allow refolding. […] All data was analyzed relative to the negative control refold, which was performed in the absence of peptide (labeled NP). HLA-A*02:01 refolded with the CMV pp65 viral epitope was used as a positive control.
A 384-well Nunc Maxisorp plate (ThermoFisher Scientific, Waltham, MA) was coated with 25 μL/well of mouse IgG2a anti-HLA ABC clone W6/32 (Novus Biological, Littleton, Co.) at 8 μg/mL in coating buffer (0.05 sodium carbonate pH 9.6). After overnight incubation at 4° C., the plate was washed 3 times with wash buffer (PBS, 0.5% Tween 20). The plate was then blocked with 50 μL/well of Block buffer (PBS, 0.5% BSA, 10 ppm Proclin) and incubated at room temperature (RT) with agitation for 1 hour. After washing the plate 3 times with wash buffer, 25 μL/well of the unpurified refolded MHC complex at 40 μg/mL with and without peptides in assay diluent (PBS, 0.5% BSA+0.05% Tween20+10 ppm Proclin) was added to the plate and incubated for 1 hour at RT. The plate was washed six times and 25 IL of biotinylated mouse IgG1 anti-human B2M (BioLegend, San Diego, CA) at 100 ng/mL in assay diluent was added to each well. After a 1 hour incubation at RT and six washes, 25 μL/well of Streptavidin-Horseradish Peroxidase (GE, Marlborough, MA) was added to the plate and incubated for 30 min at RT. The color reaction was developed with TMB peroxidase substrate (Moss, Pasadena, MD) at RT for 15 min, and the reaction was stopped with 1M phosphoric acid. The absorbance was measured at a wavelength of 405 nm with a reference at 620 nm. […]

Consider APEEHPVLL [Peptide B3503-03], for which the ligand presentation entry in the test with B*35:03 [1] is “Positive”.
Turning to DAVPFPISL [Peptide C0202-01], the ligand presentation result with C*02:02 [2] was “Positive”.
With DTITNVTTM [Peptide A2601-05], the Kd on A*26:01 was 4 nM.
With DVVPMVTQM [Peptide A2601-03], the Kd on A*26:01 is 3 nM.
With “FAAEAJKL (FAAEA[code J]KL; not fully specified; reading uncertain) [Peptide C0202-03-03]”, the “S/N ELISA value” with C*02:02 [3] is reported as “highest S/N value”; with C*02:02 [3] (listed as C0202-02-03) it was 8. The “normalized ELISA OD” value with C*02:02 [3] is reported as “highest normalized ELISA OD value”; with C*02:02 [3] (listed as C0202-02-03), 8.
On to “FAAEAQKJ (FAAEAQKX; not fully specified) [Peptide C0202-03-04]”, for which, in the test with C*02:02 [3], the “S/N ELISA value” is “very low S/N ELISA values” and the “normalized ELISA OD” value is given as “very low normalized ELISA values”.
With FAAEAQKL [Peptide C0202-02], in the test with C*02:02 [2], the ligand presentation result is “Positive”. Also, in the test with C*02:02 [3], the “S/N ELISA value” was ~8 and the “normalized ELISA OD” value was ~8.
Turning to “FAAJAQKL (FAAXAQKL; not fully specified) [Peptide C0202-03-02]”, in the test with C*02:02 [3], the “S/N ELISA value” came to 6 and the “normalized ELISA OD” value stood at 6.
Regarding “FJAEAQKL (FXAEAQKL; not fully specified) [Peptide C0202-03-01]”, in the test with C*02:02 [3], the “S/N ELISA value” is listed as “very low S/N ELISA values” and the “normalized ELISA OD” value is given as “very low normalized ELISA values”.
As for FJYSDFHFI [Peptide A0203-02-01], at HLA-A*02:03, the “S/N ELISA value” is “very low S/N ELISA values” and the “normalized ELISA OD (signal to background)” value is reported as “very low normalized ELISA values”.
Take FMYEGDTPL [Peptide C1402-04]: the equilibrium dissociation constant (Kd) on C*14:02 was 0.1 nM.
For FMYJDFHFI [Peptide A0203-02-02], on HLA-A*02:03, the “S/N ELISA value” is given as “highest S/N value” and the “normalized ELISA OD (signal to background)” value is reported as “highest normalized ELISA OD value”.
As for IAKSGTSEF (FAAEAQKL) [Peptide C0202-03], the ligand presentation result with C*02:02 [2] is “Positive”. In the test with C*02:02 [3], the “S/N ELISA value” is listed as “highest S/N value” and the “normalized ELISA OD” value is reported as “highest normalized OD value”.
IPAEGRVAL [Peptide B3503-02]: the ligand presentation entry in the test with B*35:03 [1] is reported as “Positive”.
Turning to KIRDLLPVM [Peptide C0202-04], the ligand presentation result in the test with C*02:02 [2] is “Positive”.
On to SYMSTFPLF [Peptide C0202-05], for which the ligand presentation result on C*02:02 [2] is on record as “Positive”.
Regarding SYMSTFPLF [Peptide C1402-01], the Kd at C*14:02 is 0.1 nM.
Regarding “TJANYFHVL (TXANYFHVL; not fully specified) [Peptide B3503-04-01]”, in the test with B*35:03 [4], the “S/N ELISA value” was “very low S/N ELISA values” and the “normalized ELISA OD (signal to background)” value is on record as “very low normalized ELISA values”.
In the same order, the values of “TPAJYFHVL (TPA[code J]YFHVL; not fully specified; reading uncertain) [Peptide B3503-04-02]” are “highest S/N value” and “highest normalized ELISA OD value”.
For TPANYFHVL [Peptide B3503-04], in the test with B*35:03 [1], the ligand presentation entry was “Positive”. Also, in the test with B*35:03 [4], the “S/N ELISA value” is reported as “highest OD value” and the “normalized ELISA OD (signal to background)” value is given as “highest OD value”.
TYLQSLASL [Peptide C1402-02]: the Kd at C*14:02 is 0.1 nM.
Consider YPYPYPHTAAFSKLIYL [Peptide B3503-05], for which the ligand presentation result in the test with B*35:03 [1] is recorded as “Positive”.
Turning to YYRYPTGESY [Peptide C1402-03], the Kd on C*14:02 is 0.1 nM.

A word on the Kd: it is the concentration at which binding is half-saturated.
